Target: T1, CD22 (UniProtKB-P20273) on CD22(+) cells (human, UniProt P20273 20-847)
T1 construct: Endogenous CD22 on the NALM6 and Raji cell lines; also called SIGLEC-2; BL-CAM
T1 sequence: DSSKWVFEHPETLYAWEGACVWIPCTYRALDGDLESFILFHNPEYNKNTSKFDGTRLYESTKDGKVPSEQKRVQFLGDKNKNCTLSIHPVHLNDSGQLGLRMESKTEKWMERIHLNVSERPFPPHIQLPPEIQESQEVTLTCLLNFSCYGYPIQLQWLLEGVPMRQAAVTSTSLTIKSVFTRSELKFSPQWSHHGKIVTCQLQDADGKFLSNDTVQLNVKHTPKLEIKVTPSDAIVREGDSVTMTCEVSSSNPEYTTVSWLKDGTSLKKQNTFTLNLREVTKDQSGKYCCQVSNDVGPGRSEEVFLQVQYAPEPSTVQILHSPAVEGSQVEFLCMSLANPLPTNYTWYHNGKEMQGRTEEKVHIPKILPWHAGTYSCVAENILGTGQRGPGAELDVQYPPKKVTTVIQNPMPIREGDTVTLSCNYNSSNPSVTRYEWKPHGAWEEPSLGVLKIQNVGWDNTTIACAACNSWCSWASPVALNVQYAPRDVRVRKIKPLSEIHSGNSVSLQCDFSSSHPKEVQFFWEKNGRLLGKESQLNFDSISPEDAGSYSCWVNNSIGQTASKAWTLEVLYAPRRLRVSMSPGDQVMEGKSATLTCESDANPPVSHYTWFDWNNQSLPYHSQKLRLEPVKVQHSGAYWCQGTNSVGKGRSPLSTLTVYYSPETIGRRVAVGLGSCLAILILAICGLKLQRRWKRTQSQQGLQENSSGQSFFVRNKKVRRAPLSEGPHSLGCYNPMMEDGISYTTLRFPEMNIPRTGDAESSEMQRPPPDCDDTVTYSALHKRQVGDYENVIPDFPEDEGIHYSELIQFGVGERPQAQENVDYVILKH
Assay: flow cytometry (FACS) on CD22(+) NALM6 cells, detected with an anti-human Fc second antibody
Protocol: The binding of bispecific CD22-CD3 IgG-scFv antibodies to NALM6 CD22(+) leukemic cells was assayed using FACS. CD22(−) MOLM13 AML cells were used as a negative control for CD22 expression, and anti-CD3 humanized OKT3 (huOKT3) was used as a negative antibody control. […] In contrast, neither the chimeric LL2 IgG+huOKT3 scFv nor the huOKT3 antibody stained the CD22(−) MOLM13 AML cells.

binding result: binds
B1: chimeric anti-CD22-CD3 BsAb (chLL2 x CD3 BsAb) (bispecific antibody)
heavy: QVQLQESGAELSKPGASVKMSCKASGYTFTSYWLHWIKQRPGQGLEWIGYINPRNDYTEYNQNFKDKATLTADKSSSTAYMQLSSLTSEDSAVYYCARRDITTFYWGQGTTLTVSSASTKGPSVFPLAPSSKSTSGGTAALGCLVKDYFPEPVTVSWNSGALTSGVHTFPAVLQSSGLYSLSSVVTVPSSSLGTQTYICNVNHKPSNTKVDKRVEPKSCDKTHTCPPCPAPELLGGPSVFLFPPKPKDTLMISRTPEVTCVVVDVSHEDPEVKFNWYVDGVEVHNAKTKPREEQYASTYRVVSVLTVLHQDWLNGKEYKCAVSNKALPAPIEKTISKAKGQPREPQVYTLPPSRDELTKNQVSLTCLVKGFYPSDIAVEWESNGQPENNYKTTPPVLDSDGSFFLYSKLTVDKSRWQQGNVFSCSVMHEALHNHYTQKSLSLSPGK
light: DIQLTQSPSSLAVSAGENVTMSCKSSQSVLYSANHKNYLAWYQQKPGQSPKLLIYWASTRESGVPDRFTGSGSGTDFTLTISRVQVEDLAIYYCHQYLSSWTFGGGTKLEIKRTVAAPSVFIFPPSDEQLKSGTASVVCLLNNFYPREAKVQWKVDNALQSGNSQESVTEQDSKDSTYSLSSTLTLSKADYEKHKVYACEVTHQGLSSPVTKSFNRGECTSGGGGSGGGGSGGGGSQVQLVQSGGGVVQPGRSLRLSCKASGYTFTRYTMHWVRQAPGKCLEWIGYINPSRGYTNYNQKFKDRFTISRDNSKNTAFLQMDSLRPEDTGVYFCARYYDDHYSLDYWGQGTPVTVSSGGGGSGGGGSGGGGSGGGGSGGGGSGGGGSDIQMTQSPSSLSASVGDRVTITCSASSSVSYMNWYQQTPGKAPKRWIYDTSKLASGVPSRFSGSGSGTDYTFTISSLQPEDIATYYCQQWSSNPFTFGCGTKLQITR
notes: IgG-scFv format: huOKT3 scFv fused to the C-terminus of the LL2 IgG1 light chain; also called chimeric LL2 IgG+huOKT3 scFv
